Article PMC6650547 (mBio, 2019)

Target: SUDV VP35:[change] peptide (residues 1 to 34) (Sudan virus (SUDV), strain Gulu, UniProt Q5XX07 1-34)
Assay: BLI
Conditions: both partners purified

B1: His-SUDV-NP(34-367) (domain or fragment)
chain: GIVRQRVIPVYVVNDLEGICQHIIQAFEAGVDFQDNADSFLLLLCLHHAYQGDHRLFLKSDAVQYLEGHGFRFEVREKENVHRLDELLPNVTGGKNLRRTLAAMPEEETTEANAGQFLSFASLFLPKLVVGEKACLEKVQRQIQVHAEQGLIQYPTSWQSVGHMMVIFRLMRTNFLIKFLLIHQGMHMVAGHDANDTVISNSVAQARFSGLLIVKTVLDHILQKTDLGVRLHPLARTAKVKNEVSSFKAALGSLAKHGEYAPFARLLNLSGVNNLEHGLYPQLSAIALGVATAHGSTLAGVNVGEQYQQLREAATEAEKQLQQYAETRELDNLG
- Kd: ~266 nM
